According to patent US20240294650A1 (Alector, published 2024):
Where a chain is given by its changes, count along the chain named.

T1: recombinant cynomolgus MerTK extracellular domain (cynomolgus, UniProt Q12866 21-505 (human entry))
T1 construct: also called cyno MerTK ECD; not shown: polyHis or TEVS/Thrombin/murine IgG2a-Fc tag
T1 chain: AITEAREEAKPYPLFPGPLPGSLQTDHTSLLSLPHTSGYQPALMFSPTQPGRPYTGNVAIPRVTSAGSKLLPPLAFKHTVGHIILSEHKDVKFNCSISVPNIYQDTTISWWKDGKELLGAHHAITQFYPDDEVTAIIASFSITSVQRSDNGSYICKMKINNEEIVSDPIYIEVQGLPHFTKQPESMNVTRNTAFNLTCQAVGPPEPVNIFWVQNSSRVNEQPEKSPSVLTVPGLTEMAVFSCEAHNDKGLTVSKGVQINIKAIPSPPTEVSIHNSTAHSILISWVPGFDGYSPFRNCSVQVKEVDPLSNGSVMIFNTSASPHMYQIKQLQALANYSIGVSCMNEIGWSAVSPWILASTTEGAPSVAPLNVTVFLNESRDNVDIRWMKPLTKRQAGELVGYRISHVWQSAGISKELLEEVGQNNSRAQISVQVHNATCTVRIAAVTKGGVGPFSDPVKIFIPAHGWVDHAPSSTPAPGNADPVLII

T2: MerTK C-terminal ECD Half-and-half chimera (human)
T2 construct: tested as culture supernatant; also called MerTK C-term half-and-half chimera; MerTK C-terminal ECD (FN1-FN2-JM) + Axl N-terminal ECD (NT-Ig1-Ig2)
T2 chain: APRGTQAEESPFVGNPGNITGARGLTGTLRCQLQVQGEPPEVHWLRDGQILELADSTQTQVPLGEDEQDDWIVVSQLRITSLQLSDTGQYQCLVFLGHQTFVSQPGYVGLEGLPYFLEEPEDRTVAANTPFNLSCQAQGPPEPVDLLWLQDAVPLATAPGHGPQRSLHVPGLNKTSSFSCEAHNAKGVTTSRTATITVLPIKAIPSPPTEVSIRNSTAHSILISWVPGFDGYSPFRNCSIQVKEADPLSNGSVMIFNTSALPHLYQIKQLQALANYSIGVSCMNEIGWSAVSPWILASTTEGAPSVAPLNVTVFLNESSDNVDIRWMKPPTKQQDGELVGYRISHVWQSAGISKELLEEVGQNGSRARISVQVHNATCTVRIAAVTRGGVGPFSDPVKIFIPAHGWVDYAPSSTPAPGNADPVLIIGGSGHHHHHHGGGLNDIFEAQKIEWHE

T3: His tag-conjugated recombinant ProS (human, UniProt P07225 42-676, limits assumed)
T3 construct: bought; also called Protein S; ProS1 (R&D systems, Cat #9489-PS-100)
T3 sequence (looked up): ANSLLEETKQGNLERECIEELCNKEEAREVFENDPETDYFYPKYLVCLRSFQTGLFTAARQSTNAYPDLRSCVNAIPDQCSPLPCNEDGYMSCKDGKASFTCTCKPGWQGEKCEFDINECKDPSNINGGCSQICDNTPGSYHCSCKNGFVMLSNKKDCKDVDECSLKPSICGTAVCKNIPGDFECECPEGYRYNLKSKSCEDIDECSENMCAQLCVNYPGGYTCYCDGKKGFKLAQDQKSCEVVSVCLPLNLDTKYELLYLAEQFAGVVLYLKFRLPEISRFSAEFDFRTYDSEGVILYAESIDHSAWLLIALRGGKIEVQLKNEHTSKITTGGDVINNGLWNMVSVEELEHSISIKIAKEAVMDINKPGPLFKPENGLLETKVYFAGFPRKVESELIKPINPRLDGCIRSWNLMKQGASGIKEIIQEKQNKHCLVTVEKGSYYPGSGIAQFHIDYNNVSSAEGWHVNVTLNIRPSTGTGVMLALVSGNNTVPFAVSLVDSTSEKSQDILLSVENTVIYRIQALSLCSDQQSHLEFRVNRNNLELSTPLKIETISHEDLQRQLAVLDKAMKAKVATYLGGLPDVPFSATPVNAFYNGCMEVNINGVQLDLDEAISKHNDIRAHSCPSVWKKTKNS

B1: MTK-207 (antibody, human IgG1, V domains shown)
VH: QVQLKESGPGLVAPSQSLSITCTVSGISLTSYGVSWVRQPPGKGLEWLGIIWGDGSTNYHSALISRLSISKDNSKSQVFLKLNSLQTDDTATYYCAKGRYGNYEDWYFDVWGTGTTVTVSS
VL: DIQMTQSPASLSASVGETVTITCRASGNIHNYLAWYQQKQGKSPQLLVYNAKTLAAGVPSRFSGSGSGTQYSLKINSLQPEDFGSYYCQHFWSIPLTFGAGTKLELK
B2: MTK-216 (antibody, human IgG1, V domains shown)
VH: EVQLVESGGGLVKPGGSLKLSCAASGFTFSDYGMHWVRQAPEKGLEWVAFISSGSTTIYYADTVKGRFTISRDNAKNTLILQMTSLRSEDTAIYYCTRGGFHLDYWGQGTTLTVSS
VL: SIMMTQSPSSLAVSAGEKVTMGCKSSQSVLYSANQQNYLAWYQQKPGQSLKLLIYWASTRESGVPDRFTGSGSGTDFTLTISSVQAEDLAVYYCHQYFSSWTFGGGTKLEIK
B3: MTK-213 (antibody, human IgG1, V domains shown)
VH: QVQLQQPGAELVKPGASVKMSCKASGYTFTSYWITWVKQRPGQGHEWIGEIYPGIGSTNYNEKFKSKATLTVDTSSRTAYMQLSSLTSEDSAVYFCARGAYTKYYFDYWGQGTTLTVSS
VL: DIVMTQSHKFMSTSVGDRVSITCKASQDVGDAVAWYQQKPGQTPKLLIYWASTRHTGVPDRFTGSGSGTDFTLTISNVQSEDLADYFCQQYSSYLMYTFGGGTKLEIK
B4: MTK-212 (antibody, human IgG1, V domains shown)
VH: QVQLQQSGPELVKPGASVKISCKASGYAFSSSWVNWVKQRPGKGLEWIGRIYPGDGDSNYNGNFKGKATLTADKSSNTAYLQLSSLTSEDSAVYFCARKSHFIYYTLDYWGQGTPVTVSS
VL: DIVMTQSHKFKSTSVGDRVSIACKASQDVGTSVAWYQQKPGKSPKLLIYWASSRHTGVPDRFTGSGSGTDFTLTISNVQSEDLTDYFCQQYSTYPYTFGGGTKLEIK
B5: MTK-225 (antibody, human IgG1, V domains shown)
VH: EVQLQQSGPELVKPGASVKIFCKASGYTFTAYNMDWVKQSHGKSLEWIGDINPNNGGTIYNQKFKGKATLTVDKSSSTAYMELRSLTSEDTAVYYCARRRRYGNTYYWYFDVWGTGTTVTVSS
VL: DIQMTQSPASLSVSVGETVTITCRASENIYSSLAWYQQKQGKSPQLLVYAATNLADGVPSRFSGSGSGTQFYLKINGLQSEDFGSYYCQHFWGTSYTFGGGTKLEIK
B6: MTK-223 (antibody, human IgG1, V domains shown)
VH: DVQLQESGPGLVKPSQSLSLTCSVTGYSITSGYYWNWIRQFPGNKLEWMGYISYDGTNNYNPSLKNRISITRDTSENQFFLKLNSVTTEDTATYFCVRGAGYWGQGTTLTVSS
VL: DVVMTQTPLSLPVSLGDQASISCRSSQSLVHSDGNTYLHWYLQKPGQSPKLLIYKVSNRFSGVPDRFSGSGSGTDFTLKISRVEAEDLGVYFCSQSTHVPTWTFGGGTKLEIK
B7: MTK-231 (antibody, human IgG1, V domains shown)
VH: B6 VH with N58Y, N61H, E76K, K82T, Y94F, F95Y, V97T, A100G, T108S, L109V
VL: DVVMTQTPLSLPVSLGDQASISCRSSQSLVHSDGNTYLHWYLQKPGQSPKLLIYKVSNRFSGVPDRFSGSGSGTDFTLKISRLEAEDLGIYFCSQTTHIPLTFGSGTKLEIK
B8: MTK-218 (antibody, human IgG1, V domains shown)
VH: QVQLQQSGPELVKPGTSVKISCKASGYSFTSYYIHWVKQRPGQGLDWIGWIFPGNRNTQYNEKFKGKATLTADTSSSTAYMQLSSLTSEDSAVYYCARLGLIYALDYWGQGTSVTVSS
VL: DAVMTQTPLSLPVSLGDQASISCRSSQSLENSNGHTYLHWYLQKPGQSPQLLIYRVSNRFSGVQDRFSGSGSGTDFTLKISRVEAEDLGVYFCLQVTHVPFTFGSGTKLEIK
B9: MTK-226 (antibody, human IgG1, V domains shown)
VH: B8 VH with T16A, D46E, R56G, Q59K, K63N, K65R
VL: B8 VL with N31S, H35N, Q64L, K79Q
B10: MTK-220 (antibody, V domains shown)
VH: B2 VH with S53G, T56G, A61E, I80F, I93M, F101N, H102Y, L103F
VL: B2 VL with S1N, M4L, G22T, A33S, Q36K, L50P, S83N
B11: MTK-202 (antibody, human IgG1, V domains shown)
VH: EVQLVESGGGLVKPGGSLKLSCAASGFTFSDFGMHWVRQVPEKGLEWVAFISGGSNTIYYTDTVKGRFTISRDNAKNTLFLQMTSLRSEDTAMYYCVRNGNSFAYWGQGTLVTVSA
VL: B2 VL with S1N, G22N, A33S, Q36K, L50P, S83N, V84I, V91I, S99F
B12: MTK-204 (antibody, human IgG1, V domains shown)
VH: B2 VH with F50Y, S55T, T56S, A61E, I80F, I93M, T97A, F101L, H102L, L103F
VL: B2 VL with S1N, G22S, A33S, Q36K, L50P, Y55Q, G74E, S82R
B13: MTK-224 (antibody, human IgG1, V domains shown)
VH: QVQLQQPGAELVKPGASVKVSCKASGYTFTSYWMHWVKQRPGQGLEWIGRIHPFDSDTNYNQKFKGKATLTVDKSSSTAYMQLSSLTSEDSAVYYCSIAGFAYWGQGTLVTVSA
VL: DIVMTQSPATLSVTPGDRVSLSCRASQIISDYLNWYQQKSHESPRLLIKYASQSISGIPSRFSGSGSGSDFTLSINSVEPEDVGVYYCQNGHSFPLTFGAGTKLELK
B14: MTK-214 (antibody, human IgG1, V domains shown)
VH: QVQLQQPGAELVKPGASVKVSCKASGYTFTNYWMHWMKQRPGQGLEWIGRIHPFDSDTNYNEKFTDKATLTVDKSSSTAYMQLSSLTSEDSAVYYCAIGTLIYWGQGTTLTASS
VL: DILLTQSPATLSVTPGETVSLSCRASQSIYKKLHWFQQRSHRSPRLLIKFASDSISGIPSRFTGSGSGTDYTLSINSVKPEDEAIYYCLQGYSTPLTFGAGTKLELK
B15: MTK-211 (antibody, human IgG1, V domains shown)
VH: QVQLQQSGAELMKPGASVKLSCKATGYTFTGYWIEWVKQRPGHGLEWIGEILPGSGGSNYNEKFKGKATFTADTSSNTAYIQLSSLTTEDSAIYCCARGEPSYFSDAGFAYWGQGTLVTVSA
VL: QIVLTQSPAVMSASPGEKVTMTCSASSSITYMHWYQQKPGTSPKRWIYDTSKLASGVPARFSGSGSGTSYFLTISSMEAEDVATYYCHQRSTYPYTFGGGTKLEIM

Biological target: T1, recombinant cynomolgus MerTK …
Assay: SPR Carterra LSA, Ab immobilised; LB = low binding (below limit of measurement), KD not determined

Binder | binding result
B1 | binds
B2 | binds

Biological target: T2, MerTK C-terminal ECD Half-and-half …
Assay: SPR, construct supernatant over immobilised Ab
In short: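 SPR, Carterra LSA: anti-MerTK Ab amine-coupled (duplicate, HC30M chip); construct supernatant diluted 1:1 in HBS-TE + 0.5 mg/mL BSA, injected; regen 10 mM glycine pH2.0 after each injection. Read-out = binding pattern per construct.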

Binder | binding result
B3 | no binding
B4 | no binding
B5 | no binding
B6 | no binding
B7 | no binding
B8 | no binding
B9 | no binding
B10 | no binding
B11 | no binding
B12 | no binding

biological target: T3, His tag-conjugated recombinant ProS; assay: ELISA, captured Ab, ProS-His 10 ug/ml, no MerTK

Binder | binding result
B3 | binds
B13 | binds
B14 | binds
B1 | binds
B7 | binds
B15 | binds
